% Inhibition data for 27 substances are collected here from patent EP1379283B1, “IDENTIFICATION OF TARGET-SPECIFIC FOLDING SITES IN PEPTIDES AND PROTEINS” (Palatin Technologies, Inc., priority 2000, dated 2002).

The target of assay [1] is angiotensin-II receptor of human neuroblastoma cells (KAN-TS) (human). The experiment in a line: competition with 125I-Tyr4,Sar1,Ile8-angiotensin II on KAN-TS human neuroblastoma cell membranes, metallopeptide at 1 µM.
Assay [2] concerns the target uPA receptor (urokinase-type plasminogen activator receptor) on U937 cells (UniProt Q03405). The experiment in a line: competition receptor-binding assay on U937 cells, ATF as competing ligand, metallopeptide at 1 µM.
Assay [3] deals with vasopressin-1 receptor of rat liver cell membranes (rat) (UniProt P30560). Kind of assay: competition with 3H-vasopressin-1 antagonist on rat liver membranes, metallopeptide at 1 µM.
In assay [4] the target is oxytocin receptor of rat uterus cell membranes (rat) (UniProt P70536). Kind of assay: competition with 3H-oxytocin on rat uterus membranes, metallopeptide at 1 µM.

A word on the % Inhibition: it is the change of the read-out against control, counted positive when it falls.

angiotensin-II receptor of human neuroblastoma cells (KAN-TS) (human), sequence (P30556 whole entry): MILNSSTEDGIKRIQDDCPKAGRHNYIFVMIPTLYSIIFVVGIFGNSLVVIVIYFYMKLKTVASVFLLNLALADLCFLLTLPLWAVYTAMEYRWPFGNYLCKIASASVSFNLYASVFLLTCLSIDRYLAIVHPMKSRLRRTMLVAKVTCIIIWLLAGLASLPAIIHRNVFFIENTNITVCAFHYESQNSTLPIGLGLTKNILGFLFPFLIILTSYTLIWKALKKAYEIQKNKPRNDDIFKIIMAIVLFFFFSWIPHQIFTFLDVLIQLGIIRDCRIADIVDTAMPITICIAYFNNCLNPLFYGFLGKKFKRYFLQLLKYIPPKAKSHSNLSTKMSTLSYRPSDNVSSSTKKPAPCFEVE
vasopressin-1 receptor of rat liver cell membranes (rat), sequence (P30560 whole entry): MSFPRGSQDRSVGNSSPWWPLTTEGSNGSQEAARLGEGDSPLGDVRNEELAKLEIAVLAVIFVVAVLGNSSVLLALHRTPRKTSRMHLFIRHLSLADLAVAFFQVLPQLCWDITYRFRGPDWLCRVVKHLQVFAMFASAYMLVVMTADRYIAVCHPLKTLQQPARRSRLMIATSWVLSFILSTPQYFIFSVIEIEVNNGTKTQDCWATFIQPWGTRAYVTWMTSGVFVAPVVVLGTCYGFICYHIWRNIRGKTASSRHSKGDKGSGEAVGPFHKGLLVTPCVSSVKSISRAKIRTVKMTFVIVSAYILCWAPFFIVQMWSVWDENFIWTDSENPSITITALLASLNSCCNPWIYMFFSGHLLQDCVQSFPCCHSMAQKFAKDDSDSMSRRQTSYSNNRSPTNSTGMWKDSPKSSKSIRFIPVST
oxytocin receptor of rat uterus cell membranes (rat), sequence (P70536 whole entry): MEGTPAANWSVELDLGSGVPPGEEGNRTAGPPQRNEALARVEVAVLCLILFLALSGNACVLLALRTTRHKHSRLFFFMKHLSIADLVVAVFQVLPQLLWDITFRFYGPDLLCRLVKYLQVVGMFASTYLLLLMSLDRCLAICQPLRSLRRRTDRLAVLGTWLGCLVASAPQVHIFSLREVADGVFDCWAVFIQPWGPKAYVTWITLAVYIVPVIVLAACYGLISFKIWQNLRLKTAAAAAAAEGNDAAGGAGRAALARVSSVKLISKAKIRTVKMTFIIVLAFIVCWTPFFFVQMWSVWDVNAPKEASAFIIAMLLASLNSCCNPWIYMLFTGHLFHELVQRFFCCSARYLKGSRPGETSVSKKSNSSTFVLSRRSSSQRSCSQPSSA
uPA receptor (urokinase-type plasminogen activator receptor) on U937 cells, sequence (Q03405 23-305): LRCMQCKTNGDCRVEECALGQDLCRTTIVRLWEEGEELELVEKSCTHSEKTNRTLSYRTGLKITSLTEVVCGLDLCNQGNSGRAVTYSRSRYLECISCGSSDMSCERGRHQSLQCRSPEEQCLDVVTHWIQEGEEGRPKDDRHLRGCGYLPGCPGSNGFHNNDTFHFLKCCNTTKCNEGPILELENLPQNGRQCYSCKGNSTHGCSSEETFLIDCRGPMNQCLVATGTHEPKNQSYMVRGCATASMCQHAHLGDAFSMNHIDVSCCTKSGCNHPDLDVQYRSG

As for “Re-complexed Sar-Arg-Val-Tyr-Ile-His-Gly-Cys-Thr (SEQ ID NO:160) (peptide)”, the % Inhibition at 1 µM in assay [1] was determined as 5%.

Take “Re-complexed Ac-Val-Ser-Asn-Lys-Tyr-Phe-Ser-Asn-Cys-Ile-His-Trp-NH2 (SEQ ID NO:10) (peptide)”: the % Inhibition at 1 µM in assay [2] is 32%.

As for “Re-complexed Ac-Val-Ser-Asn-Lys-Cys-Tyr-Phe-Ser-Asn-Ile-His-Trp-NH2 (SEQ ID NO:6) (peptide)”, in assay [2], the % Inhibition at 1 µM was found to be 13%.

With “Re-complexed Ala-Tyr-Ile-Gln-Asn-Ala-Ala-Cys-Leu-Gly-NH2 (SEQ ID NO:152) (peptide)”, the % Inhibition at 1 µM in assay [3] was 1%; in assay [4] it was 0%.

“Re-complexed Ala-Tyr-Ile-Gln-Asn-Ala-Ala-Leu-Gly-Cys-NH2 (SEQ ID NO:150) (peptide)”: the % Inhibition at 1 µM in assay [3] and in assay [4] was 0% in each case.

Regarding “Re-complexed Ala-Tyr-Ile-Gln-Asn-Cys-Ala-Pro-Leu-Gly-NH2 (SEQ ID NO:155) (peptide)”, the % Inhibition at 1 µM stood at 0% in assay [3] and 42% in assay [4].

“Re-complexed Sar-Arg-Val-Cys-Tyr-Ile-His-Pro-Thr (SEQ ID NO:164) (peptide)”: the % Inhibition at 1 µM in assay [1] was 1%.

For the substance “Re-complexed Ala-Tyr-Ile-Gln-Asn-Ala-Cys-Ala-Leu-Gly-NH2 (SEQ ID NO:154) (peptide)”, the % Inhibition at 1 µM came to 0% in assay [3] and 31% in assay [4].

As for “Re-complexed Ala-Tyr-Ile-Gln-Asn-Ala-Ala-Leu-Cys-Gly-NH2 (SEQ ID NO:151) (peptide)”, the % Inhibition at 1 µM in assay [3] and in assay [4] was 0% throughout.

For “Re-complexed Ala-Tyr-Ile-Gln-Asn-Ala-Cys-Pro-Leu-Gly-NH2 (SEQ ID NO:153) (peptide)”, the % Inhibition at 1 µM stood at 0% in assay [3] and 2% in assay [4].

Take “Re-complexed Ala-Tyr-Ile-Cys-Gln-Asn-Ala-Pro-Leu-Gly-NH2 (SEQ ID NO:157) (peptide)”: the % Inhibition at 1 µM in assay [3] and in assay [4] was 0% throughout.

In the case of “Re-complexed Ala-Tyr-Ile-Gln-Cys-Asn-Ala-Pro-Leu-Gly-NH2 (SEQ ID NO:156) (peptide)”, the values for the % Inhibition at 1 µM in assay [3] and in assay [4] were 0% and 18%, respectively.

Turning to “Re-complexed Sar-Arg-Val-Tyr-Ile-His-Cys-Pro-Thr (SEQ ID NO:161) (peptide)”, the % Inhibition at 1 µM in assay [1] was determined as 60%.

For “Re-complexed Ala-Tyr-Cys-Ile-Gln-Asn-Ala-Pro-Leu-Gly-NH2 (SEQ ID NO:158) (peptide)”, the % Inhibition at 1 µM amounted to 1% in assay [3] and 6% in assay [4].

For “Re-complexed Ac-Val-Ser-Asn-Lys-Tyr-Phe-Ser-Asn-Ile-Cys-His-Trp-NH2 (SEQ ID NO:11) (peptide)”, the % Inhibition at 1 µM in assay [2] is 0%.

As for “Re-complexed Ala-Tyr-Ile-Gln-Asn-Ala-Pro-Leu-Gly-Cys-NH2 (SEQ ID NO:149) (peptide)”, the % Inhibition at 1 µM in assay [3] came out at 0%; in assay [4] it was 6%.

Consider “Re-complexed Sar-Arg-Val-Tyr-Cys-Ile-His-Pro-Thr (SEQ ID NO:163) (peptide)”, for which the % Inhibition at 1 µM in assay [1] was 12%.

Turning to “Re-complexed Ac-Val-Ser-Asn-Lys-Tyr-Phe-Ser-Asn-Ile-His-Trp-Cys-NH2 (SEQ ID NO:12) (peptide)”, the % Inhibition at 1 µM in assay [2] came to 0%.

Turning to “Re-complexed Ac-Val-Ser-Asn-Lys-Tyr-Phe-Cys-Ser-Asn-Ile-His-Trp-NH2 (SEQ ID NO:8) (peptide)”, the % Inhibition at 1 µM in assay [2] is 0%.

Take “Re-complexed Ac-Val-Ser-Asn-Lys-Tyr-Phe-Ser-Asn-Ile-His-Cys-Trp-NH2 (SEQ ID NO:3) (peptide)”: the % Inhibition at 1 µM in assay [2] amounted to 106%.

For “Re-complexed Ac-Val-Ser-Cys-Asn-Lys-Tyr-Phe-Ser-Asn-Ile-His-Trp-NH2 (SEQ ID NO:4) (peptide)”, the % Inhibition at 1 µM in assay [2] stood at 0%.

For “Re-complexed Ac-Val-Ser-Asn-Cys-Lys-Tyr-Phe-Ser-Asn-Ile-His-Trp-NH2 (SEQ ID NO:5) (peptide)”, the % Inhibition at 1 µM in assay [2] is 0%.

As for “Re-complexed Sar-Arg-Val-Tyr-Ile-Cys-His-Pro-Thr (SEQ ID NO:162) (peptide)”, in assay [1], the % Inhibition at 1 µM amounted to 20%.

Regarding “Re-complexed Sar-Arg-Cys-Val-Tyr-Ile-His-Pro-Thr (SEQ ID NO:165) (peptide)”, the % Inhibition at 1 µM in assay [1] came to 1%.

“Re-complexed Sar-Arg-Val-Tyr-Ile-His-Cys-Gly-Thr (SEQ ID NO:166) (peptide)”: the % Inhibition at 1 µM in assay [1] was 11%.

As to “Re-complexed Ac-Val-Ser-Asn-Lys-Tyr-Cys-Phe-Ser-Asn-Ile-His-Trp-NH2 (SEQ ID NO:7) (peptide)”, in assay [2], the % Inhibition at 1 µM was 18%.

Turning to “Re-complexed Ac-Val-Ser-Asn-Lys-Tyr-Phe-Ser-Cys-Asn-Ile-His-Trp-NH2 (SEQ ID NO:9) (peptide)”, the % Inhibition at 1 µM in assay [2] was 35%.
